Data published in patent US20240092926A1 (ONCORESPONSE, published 2024).

Assays:
[1] = target: T1, His-tagged recombinant human CD163 (R&D Systems, No. 1607-CD-050) (human, UniProt Q86VB7 46-1050, limits assumed); assay: ELISA, His-tagged recombinant human CD163 coated at 5 µg/mL
T1 construct: Bought protein; also called recombinant CD163 protein; huCD163; not shown: His tag
Procedure: (§1) CD163 variant antibody binding to His-tagged recombinant human CD163 (R&D Systems, No. 1607-CD-050) protein was determined using ELISA. Recombinant protein was diluted in PBS to 5 μg/mL and added to 384-well high-binding ELISA plates (Greiner Bio-One, No. 781061) at 25 μL per well and incubated at 4° C. overnight. The plates were washed three times with PBS, using a BioTek ELx405 Select microplate washer (wash program ELISA_384_PBS_3×_wash) and then blocked with 90 μL/well of blocking buffer (2% nonfat, dry milk/PBS+0.05% Tween 20) for 1 hour at RT.
(§2) After blocking, 25 μL per well of primary antibodies were added to the plates and incubated for 1 hour at RT. […] After primary antibody binding, plates were washed three times with PBS using the EL405× (wash program ELISA_384_PBS 3×_wash). The secondary antibody was a goat anti-human IgG F(ab′)₂ HRP (Jackson Immunoresearch, No. 109-035-097). Secondary antibody was diluted to 1:2500 in 2% nonfat, dry milk/PBS, and 25 μL per well was added to the wells and incubated at RT for 1 hour. The plates were washed four times with PBS, using the EL405× (wash program ELISA_384_PBS_4× wash). After removal of the final wash, 25 μL/well of neat I-Step™ Ultra TMB-ELISA Substrate Solution (ThermoFisher, No. 34028) was added and the plates were incubated for 10-15 minutes at RT protected from light. After development, the reaction was stopped by adding 25 μL per well of 0.3 M HCl and plates were read using a SpectraMax M5e instrument at 450 nm.

[2] = target: T1, His-tagged recombinant human CD163 (R&D …); assay: ELISA, plate coated with His-tagged recombinant human CD163 at 5 µg/mL, detection with anti-human IgG F(ab')2-HRP, A450; log axis in nM
Procedure: as §1, §2

[3] = target: T2, Biotin-labeled human CD163 (human, UniProt Q86VB7 42-1050, limits assumed, biotin-labeled (sites not given)); assay: BLI (Octet RED96), b-huCD163 on SA biosensor, one Ab concentration 50.0 nM
T2 construct: Biotinylated form of the human CD163 antigen, immobilised on SA biosensors for BLI; also called b-huCD163; Human CD163 Protein (biotinylated)
T2 sequence (Q86VB7 42-1050 limits assumed): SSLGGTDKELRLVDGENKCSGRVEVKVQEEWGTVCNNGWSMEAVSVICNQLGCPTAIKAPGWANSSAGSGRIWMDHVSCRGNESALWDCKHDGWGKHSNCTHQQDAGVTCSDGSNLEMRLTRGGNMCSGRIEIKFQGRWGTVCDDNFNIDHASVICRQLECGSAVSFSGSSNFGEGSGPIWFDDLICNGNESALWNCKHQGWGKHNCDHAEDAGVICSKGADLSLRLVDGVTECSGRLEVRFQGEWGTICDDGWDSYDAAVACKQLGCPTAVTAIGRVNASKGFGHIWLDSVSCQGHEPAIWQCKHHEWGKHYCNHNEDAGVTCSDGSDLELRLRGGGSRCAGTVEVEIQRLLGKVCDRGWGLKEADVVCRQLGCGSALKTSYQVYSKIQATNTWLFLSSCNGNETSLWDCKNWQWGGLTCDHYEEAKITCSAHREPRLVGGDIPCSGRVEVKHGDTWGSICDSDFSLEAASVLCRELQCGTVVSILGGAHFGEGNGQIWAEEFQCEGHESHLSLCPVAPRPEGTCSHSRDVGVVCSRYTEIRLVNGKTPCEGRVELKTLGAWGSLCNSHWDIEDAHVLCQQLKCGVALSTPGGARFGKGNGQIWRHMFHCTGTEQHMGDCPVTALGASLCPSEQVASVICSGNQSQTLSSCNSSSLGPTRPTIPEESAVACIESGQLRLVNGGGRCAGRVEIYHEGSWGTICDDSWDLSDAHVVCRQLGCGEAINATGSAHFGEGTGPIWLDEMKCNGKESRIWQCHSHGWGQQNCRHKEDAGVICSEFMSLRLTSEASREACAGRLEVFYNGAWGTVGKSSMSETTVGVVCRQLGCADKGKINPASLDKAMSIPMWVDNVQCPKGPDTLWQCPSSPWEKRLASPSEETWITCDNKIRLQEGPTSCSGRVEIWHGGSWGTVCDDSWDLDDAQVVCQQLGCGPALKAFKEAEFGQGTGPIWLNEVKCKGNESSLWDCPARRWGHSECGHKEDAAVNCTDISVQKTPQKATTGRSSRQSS

[4] = target: T1, His-tagged recombinant human CD163 (R&D …); assay: ELISA, His-tagged recombinant human CD163 coated; ratio of EC50 against AB101
Procedure: as §1
as §2, with “After removal of the final wash, 25 μL/well of neat I-Step™ Ultra TMB-ELISA Substrate Solution (ThermoFisher, No. 34028) was added and the plates were incubated for 10-15 minutes at RT protected from light.” left out

[5] = target: T2, Biotin-labeled human CD163; assay: BLI (Octet RED96), b-huCD163 on SA biosensor, ratio of KD against AB101 parental Ab
[6] = target: T2, Biotin-labeled human CD163; assay: BLI (Octet RED96), b-huCD163 on SA biosensor, Ab at 6.25/12.5/25/50 nM
Procedure: The SA sensors were placed in the PBS buffer for 15 minutes. Different solutions were added to a 96-well plate according to the following orders, with 200 μL per well.

[7] = target: T1, His-tagged recombinant human CD163 (R&D …); assay: ratio of the KD values of Table 6 (AB101 parental Ab KD over clone 4 KD); the method is not shown in the excerpt
[8] = target: T3, human CD163 expressed on cells (SU-DHL-1 lymphoma cells, M2c macrophages, monocytes and dendritic cells of … (human, UniProt Q86VB7 42-1114)); assay: cell-based or functional assay
T3 sequence (Q86VB7 other isoform, or with tags, fused parts or gaps limits assumed): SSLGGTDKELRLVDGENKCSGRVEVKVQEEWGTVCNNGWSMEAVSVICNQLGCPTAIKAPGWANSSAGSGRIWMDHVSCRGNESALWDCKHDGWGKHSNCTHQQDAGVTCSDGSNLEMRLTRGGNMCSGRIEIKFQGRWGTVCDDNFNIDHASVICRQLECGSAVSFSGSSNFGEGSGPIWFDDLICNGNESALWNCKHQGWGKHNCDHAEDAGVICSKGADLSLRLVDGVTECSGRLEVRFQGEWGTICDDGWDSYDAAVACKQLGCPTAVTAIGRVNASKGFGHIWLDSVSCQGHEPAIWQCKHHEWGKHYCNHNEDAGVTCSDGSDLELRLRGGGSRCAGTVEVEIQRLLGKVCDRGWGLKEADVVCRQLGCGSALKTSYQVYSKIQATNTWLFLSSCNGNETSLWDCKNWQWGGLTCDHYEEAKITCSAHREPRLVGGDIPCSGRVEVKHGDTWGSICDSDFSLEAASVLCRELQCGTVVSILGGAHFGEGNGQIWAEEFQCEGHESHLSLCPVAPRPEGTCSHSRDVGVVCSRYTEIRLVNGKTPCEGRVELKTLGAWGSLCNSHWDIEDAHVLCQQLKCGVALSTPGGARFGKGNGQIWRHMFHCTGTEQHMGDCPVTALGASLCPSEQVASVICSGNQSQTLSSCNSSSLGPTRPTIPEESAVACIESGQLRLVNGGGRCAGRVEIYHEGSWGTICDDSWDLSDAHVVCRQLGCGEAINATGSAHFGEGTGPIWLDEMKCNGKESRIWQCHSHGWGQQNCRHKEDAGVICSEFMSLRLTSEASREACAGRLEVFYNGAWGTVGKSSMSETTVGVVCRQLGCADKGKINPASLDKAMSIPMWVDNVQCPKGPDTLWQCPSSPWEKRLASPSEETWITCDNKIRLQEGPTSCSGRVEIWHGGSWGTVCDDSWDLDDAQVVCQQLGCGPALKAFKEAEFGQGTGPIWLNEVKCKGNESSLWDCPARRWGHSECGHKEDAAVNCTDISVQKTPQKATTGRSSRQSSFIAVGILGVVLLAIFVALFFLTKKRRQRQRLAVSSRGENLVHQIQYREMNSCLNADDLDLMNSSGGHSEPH

[9] = target: T3, human CD163 expressed on cells …; assay: flow cytometry on whole blood, nonclassical monocytes, APC-labeled antibody
Procedure: (§3) Antibody binding to human immune cell lineage subsets was assessed by flow cytometry. Briefly, whole blood with heparin as an anticoagulant was obtained (Bloodworks Northwest). Fc-receptor blocking reagent was directly added to whole blood to a final concentration of 10% FBS, 0.5 mg/mL human IgG1 and 0.05% NaN₃ in a final sample volume of 400 μL. […] After 30 minutes, red blood cells (RBC) were lysed with RBC lysis buffer, followed by Zombie UV viability staining. Then, cells were washed with FACS buffer (PBS containing 1% FBS, 2 mM EDTA, and 0.05% NaN₃) and resuspended in FACS buffer containing 10% FBS and 10% FcX block. Then, the antibody phenotyping cocktail (Table 8a) was added and incubated at room temperature for 30 minutes in the dark. Cells were washed with FACS buffer and resuspended in FACS buffer data acquisition using a FACSymphony™ Cytometer (BD BioSciences). Analysis was performed using FlowJo software. Populations were identified according to gating parameters as described in Table 8b.

[10] = target: T3, human CD163 expressed on cells …; assay: flow cytometry on whole blood, intermediate monocytes, APC-labeled antibody
Procedure: as §3

[11] = target: T3, human CD163 expressed on cells …; assay: cell-based or functional assay; remark: listed apart in the source
[12] = target: T3, human CD163 expressed on cells …; assay: cell-based or functional assay; remark: listed apart in the source
[13] = target: T3, human CD163 expressed on cells …; assay: flow cytometry on whole blood, classical monocytes, APC-labeled antibody
Procedure: as §3

[14] = target: T3, human CD163 expressed on cells …; assay: flow cytometry on whole blood, DCs, APC-labeled antibody
Procedure: as §3

[15] = target: T3, human CD163 expressed on cells …; assay: cell-based or functional assay; remark: listed apart in the source

T1 sequence (Q86VB7 46-1050 limits assumed): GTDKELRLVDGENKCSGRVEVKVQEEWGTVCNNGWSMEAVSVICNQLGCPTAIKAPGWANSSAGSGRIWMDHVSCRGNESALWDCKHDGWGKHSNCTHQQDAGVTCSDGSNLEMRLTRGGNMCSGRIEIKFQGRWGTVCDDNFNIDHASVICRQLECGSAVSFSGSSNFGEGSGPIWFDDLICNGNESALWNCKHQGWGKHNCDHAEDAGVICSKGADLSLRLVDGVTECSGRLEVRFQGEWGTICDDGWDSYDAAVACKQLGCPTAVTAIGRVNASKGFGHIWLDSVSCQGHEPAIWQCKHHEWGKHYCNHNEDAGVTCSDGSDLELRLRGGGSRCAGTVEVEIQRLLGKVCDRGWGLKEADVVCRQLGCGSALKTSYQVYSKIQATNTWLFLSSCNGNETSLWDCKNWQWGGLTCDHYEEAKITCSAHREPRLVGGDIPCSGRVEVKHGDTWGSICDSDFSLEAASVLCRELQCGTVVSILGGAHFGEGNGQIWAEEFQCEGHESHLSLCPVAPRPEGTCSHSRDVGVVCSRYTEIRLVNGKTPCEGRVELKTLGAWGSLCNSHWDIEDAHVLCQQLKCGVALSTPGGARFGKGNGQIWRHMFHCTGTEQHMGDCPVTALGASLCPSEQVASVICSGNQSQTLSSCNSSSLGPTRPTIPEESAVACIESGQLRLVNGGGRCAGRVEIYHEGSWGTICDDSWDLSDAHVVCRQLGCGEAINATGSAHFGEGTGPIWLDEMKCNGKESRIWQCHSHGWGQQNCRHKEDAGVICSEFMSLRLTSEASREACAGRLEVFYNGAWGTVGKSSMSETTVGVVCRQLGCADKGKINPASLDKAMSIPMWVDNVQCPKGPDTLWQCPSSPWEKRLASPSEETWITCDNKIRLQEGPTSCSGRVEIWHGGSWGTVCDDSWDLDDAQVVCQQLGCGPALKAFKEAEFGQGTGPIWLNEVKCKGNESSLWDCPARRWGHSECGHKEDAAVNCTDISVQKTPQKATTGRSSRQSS

| Binder | EC50 [1] [nM] | EC50 (read off the curve) [2] [nM] | Kd [3] [nM] | koff [3] [s⁻¹] | kon [3] [M⁻¹ s⁻¹] | fold stronger binding than AB101 parental antibody (EC50) [4] [fold] | other results |
| --- | --- | --- | --- | --- | --- | --- | --- |
| Variant 1 (V1) (antibody, V domains shown, The printed VH ends in TVS, one S shorter than the other variants) VH: EVQLVESGGGVVQPGRSLRLSCAASGFTFSSYDMHWVRQAPGKGLEWVAVISEDGSNKYNADSVKGRFTISRDNSKNTLYLQMNSLRAEDTAVYYCARENVRPYYDFWSGYSSEYYYYGLDVWGQGTTVTVS VL: not shown | 1.87 | ~0.002 | 1.25 | 0.00112 | 895000 | 27 to 45 | – |
| Variant 4 (V4) (antibody, V domains shown, also called clone 4) VH: EVQLVESGGGVVQPGRSLRLSCAASGFTFSSYVMHWVRQAPGKGLEWVAVISEDGSNKYNADSVKGRFTISRDNSKNTLYLQMNSLRAEDTAVYYCARENVRPYYDFWSGYSSEYYYYGLDVWGQGTTVTVSS VL: not shown | 3.05 | ~0.003 | 0.824 | 0.000874 | 1.06e+06 | 27 to 45 | Affinity enhancement compared to parental Ab [5]: 3760 fold; Kd [6]: 0.176 nM; koff [6]: 0.000393 s⁻¹; kon [6]: 2.23e+06 M⁻¹ s⁻¹; fold affinity enhancement compared to AB101 parental Ab [7]: ~3760 fold |
| Variant 2 (V2) (antibody, V domains shown) VH: EVQLVESGGGVVQPGRSLRLSCAASGFTFSSETMHWVRQAPGKGLEWVAVISEDGSNKYHADSVKGRFTISRDNSKNTLYLQMNSLRAEDTAVYYCARENVRPYYDFWSGYNSEYYYYGMDVWGQGTTVTVSS VL: DIQMTQSPSSLSASVGDRVTITCRASQSISRYLNWYQQKPGKAPKLLIYAASSLQNGVPSRFSGSGSGTDFTLTISSLQPEDFATYYCQQSYSTTRGSFGQGTKVEIKR | 2.23 | ~0.002 | 0.991 | 0.00087 | 878000 | – | – |

The next lines start with results.

| EC50 [1] [nM] | EC50 (read off the curve) [2] [nM] | Kd [3] [nM] | koff [3] [s⁻¹] | kon [3] [M⁻¹ s⁻¹] | fold stronger binding than AB101 parental antibody (EC50) [4] [fold] | Binder | other results |
| --- | --- | --- | --- | --- | --- | --- | --- |
| 2.68 | ~0.003 | 0.964 | 0.000887 | 921000 | – | Variant 6 (V6) (antibody, V domains shown) VH: EVQLVESGGGVVQPGRSLRLSCAASGFTFSSETMHWVRQAPGKGLEWVAVISEDGSNKYNADSVKGRFTISRDNSKNTLYLQMNSLRAEDTAVYYCARENVRPYYDFWSGYSSEYYYYGLDVWGQGTTVTVSS VL: not shown | – |
| 2.79 | ~0.003 | 0.937 | 0.000925 | 987000 | – | Variant 3 (V3) (antibody, human IgG1, V domains shown) VH: EVQLVESGGGVVQPGRSLRLSCAASGFTFSSYVMHWVRQAPGKGLEWVAVISEDGSNKYEADSVKGRFTISRDNSKNTLYLQMNSLRAEDTAVYYCARENVRPYYDFWRGYNSEYYYYGLDVWGQGTTVTVSS VL: not shown | EC50 of antibody-elicited T cell proliferation (M2c/CD8+ T cell coculture) [8]: 0.27 nM; fold increase of geometric MFI compared to AB101 [9]: 3 fold; fold increase of geometric MFI compared to AB101 [10]: 9.2 fold; EC50 of antibody-elicited perforin secretion (M2c/CD8+ T cell coculture) [11]: 0.33 nM; EC50 of antibody-elicited IFNγ secretion (M2c/T cell blast coculture) [12]: 0.47 nM; fold increase of geometric MFI compared to AB101 [13]: 9.8 fold; fold increase of geometric MFI compared to AB101 [14]: 4.3 fold; potency against AB101 in relieving M2c-mediated suppression of IFNγ release [15]: > 10 fold; potency against parental AB101 in relieving M2c-mediated suppression of CD8+ T cell proliferation [15]: ~40 fold; potency against parental AB101 in relieving M2c-mediated suppression of perforin secretion [15]: ~100 fold |
| 2.83 | ~0.003 | 1.03 | 0.000978 | 951000 | – | Variant 5 (V5) (antibody, V domains shown) VH: EVQLVESGGGVVQPGRSLRLSCAASGFTFSSYDMHWVRQAPGKGLEWVAVISEDGSNKYNADSVKGRFTISRDNSKNTLYLQMNSLRAEDTAVYYCARENVRPYYDFWRGYNSEYYYYGLDVWGQGTTVTVSS VL: not shown | – |
